Data on two molecules can be found in patent US20150166643A1 (Alexion, published 2015).

What is called koff is the rate constant with which the complex falls apart. A low value points to slow dissociation. By kon is commonly meant a measure of how fast the partners come together. Read a high kon as faster complex formation. Broadly, the Kd is the free concentration of one partner at which half of the binding sites on the other are occupied at equilibrium, for simple one-to-one binding. A higher Kd goes with a looser complex.

Test [1] addresses T1, human factor B (purified, Complement Technology A135) (human, UniProt P00751 26-764).
T1 construct: also called fB; human complement factor B
Description: SPR (Biacore), CLS012 captured on anti-Fc surface, soluble factor B 3.1-200 nM flowed; Chi2 6.74, fitted lines depart visibly from the data (the text calls the fits poor). An excerpt: (§1) Binding kinetics of mAbs were further characterized using Biacore's Surface Plasmon Resonance (SPR) technology (GE Healthcare, Piscataway, N.J.). For a detailed description of SPR and its applications in affinity measurement, please see Karlsson and Larsson, Antibody Engineering: Methods and Protocols, Methods in Molecular Biology (2003), 248: 389-415. In one exemplary experiment, TA106 Fab and derivative mAbs were captured on chips of a Biacore 3000 analyzer and samples of human factor B of different concentrations were flowed as the antigen over the surface to model soluble human factor B binding, using protocols recommended by the manufacturer (e.g., in the product brochure #BR-9003-31). All these referenced publications are hereby incorporated by reference in their entirety. […] Fab TA106 (Xoma, Lot#TTA1007, 20 mg/mL) was then flowed over one flow cell, followed by injections of human factor B on both flow cells. Concentrations (factor B) between 3.1-200 nM were run. The surface was regenerated between each cycle. […] The affinities of mAbs, i.e., CLS011, CLS012, and CLS013, were determined using a similar capture approach. In one exemplary experiment, human anti-Fc antibody was amine coupled to two flow cells of a CM5 chip. Each of the TA106-originated mAbs was then flowed over one flow cell, followed by injecting human factor B (3.1-200 nM) on both flow cells. […]
In general terms: SPR reads the build-up and loss of mass on a sensor chip optically.

The target of test [2] is T1, human factor B (purified, Complement …). Description: cell-based or functional assay.
Test [3] shares this target. As to the kind of experiment: SPR (Biacore 3000), mAb captured by anti-Fc antibody on CM5 chip, soluble human factor B 3.1-200 nM; filing calls this value not reliable (poor fits); poor fits; patent calls the value not reliable.
Text: as §1

The target is the same in test [4]. Description: SPR (Biacore), CLS016 Fab captured on anti-Fab surface, soluble factor B flowed; Chi2 0.155. An excerpt: (§2) Binding kinetics of TA106 Fab and variant S33A Fab (CLS016) were further characterized using Surface Plasmon Resonance (SPR) technology. In one exemplary experiment, both Fabs were captured on chips of a Biacore 3000 analyzer and samples of human factor B of different concentrations were flowed as the antigen over the surface to model soluble human factor B binding, using protocols recommended by the manufacturer and described previously in the instant disclosure. […] In another exemplary experiment, the affinities of both Fabs were also measured by reversing the orientation of the previous experiment. Specifically, human factor B was directly coupled to one flow cell of a CM5 chip. The second flow cell was used as a blank reference with no coupled ligand. CLS016 or TA106 Fab was then flowed on both flow cells. Concentrations between 0.19 to 25 nM were run with duplicates. The surface was regenerated between each cycle.

Test [5] shares this target. Description: BLI (Octet), biotinylated factor B on streptavidin biosensor, Fab at 100 nM. The procedure: (§3) Binding kinetics of TA106 and TA106 S33A Fab (CLS016) to Factor B were analyzed using a FortéBio® Octet® biosensor (FortéBio, Inc.) in a similar protocol as described previously. In one exemplary experiment, Factor B (Complement Technology) was biotinylated at a 1:10 ratio and coupled to a streptavidin biosensor at a concentration of 5 μg/mL for a loading time of 600 seconds. Biosensors were briefly dipped in 1×KB as a wash for 30 seconds. Associations with a titration series of Fab with a concentration range from 100 to 3 nM (diluted in 1×KB) were carried out for 600 seconds. Fabs were dissociated from the biosensor by immersing the biosensor in 1×KB during the 600 second dissociation phase. As depicted in FIGS. 19 and 20, both TA106 Fab and TA106-derivative S33A Fab (CLS016) bound to Factor B at various concentrations, resulting in nearly identical association and dissociation profiles. Kinetic assessments using partial local fit parameters yielded identical values for KD/kₐ/Kd at each concentration tested.
On the technique in general: BLI is a label-free optical method that tracks binding on a fibre tip over time.

The target is the same in test [6]. Description: SPR (Biacore), factor B coupled to the chip, free CLS016 Fab 0.19-25 nM flowed; Chi2 0.121.
Text: as §2

Test [7] shares this target. Description: SPR (Biacore 3000), Fab captured on chip, soluble human factor B 3.1-100 nM.
Text: as §2

Test [8] has the same target. Description: BLI (Octet), biotinylated factor B on streptavidin biosensor, Fab at 6.25 nM. Here is the method:
as §3

Test [9] shares this target. Description: SPR (Biacore), human factor B directly coupled to CM5 chip, Fab flowed at 0.19-25 nM.
Text: as §2

Test [10] has the same target. Description: BLI (Octet), biotinylated factor B on streptavidin biosensor, Fab at 3.13 nM. The procedure:
as §3

Test [11] shares this target. Description: BLI (Octet), biotinylated factor B on streptavidin biosensor, Fab at 50 nM. The procedure: as §3
Test [12] has the same target. Description: SPR (Biacore), factor B coupled to the chip, free CLS016 Fab 0.19-25 nM flowed; Chi2 0.121 (the text rounds to 3.4 nM).
Text: as §2

The target is the same in test [13]. As to the kind of experiment: BLI (Octet), biotinylated factor B on streptavidin biosensor, Fab at 25 nM. Here is the method: as §3
Test [14] has the same target. As to the kind of experiment: BLI (Octet), binding to factor B (summary table). Here is the method:
as §3

For test [15] the target is unchanged. As to the kind of experiment: SPR, factor B on surface, Fab flowed (summary table).
Text: as §2

The target is the same in test [16]. As to the kind of experiment: BLI (Octet), biotinylated factor B on streptavidin biosensor, Fab at 12.5 nM. The procedure:
as §3

T1 sequence (P00751 26-764): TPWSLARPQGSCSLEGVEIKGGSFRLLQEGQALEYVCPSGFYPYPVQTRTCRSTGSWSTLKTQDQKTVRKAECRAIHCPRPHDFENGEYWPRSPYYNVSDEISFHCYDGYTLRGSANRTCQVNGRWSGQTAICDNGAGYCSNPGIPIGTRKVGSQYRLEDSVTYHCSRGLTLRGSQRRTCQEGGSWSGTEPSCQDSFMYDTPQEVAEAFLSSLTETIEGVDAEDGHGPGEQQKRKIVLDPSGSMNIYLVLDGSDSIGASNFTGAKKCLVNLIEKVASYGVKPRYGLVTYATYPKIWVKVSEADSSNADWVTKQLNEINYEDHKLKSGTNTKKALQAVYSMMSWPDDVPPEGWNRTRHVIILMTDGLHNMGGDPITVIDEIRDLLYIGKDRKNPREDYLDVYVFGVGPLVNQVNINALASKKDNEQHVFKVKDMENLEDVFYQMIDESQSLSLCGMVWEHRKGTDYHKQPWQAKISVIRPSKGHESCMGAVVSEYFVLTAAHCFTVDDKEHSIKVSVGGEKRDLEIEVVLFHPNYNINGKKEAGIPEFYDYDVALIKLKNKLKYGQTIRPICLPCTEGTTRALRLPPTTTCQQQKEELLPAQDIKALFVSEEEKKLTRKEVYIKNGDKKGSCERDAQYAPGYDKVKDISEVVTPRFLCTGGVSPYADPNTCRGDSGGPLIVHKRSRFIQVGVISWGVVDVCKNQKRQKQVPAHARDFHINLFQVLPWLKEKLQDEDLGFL

B1: CLS012 (TA106-derivative N31Q variant, full-length IgG2/4 mAb, expressed in CHO cells) (antibody, V domains shown)
VH: EVQLVQSGAEVKKPGASVKVSCKASGYSFTDYYMTWVRQAPGQGLEWMGWINPNSGGTKYAQKFQGRVTMTRDTSISTAYMELSRLRSDDTAVYYCARGYYANSAWFAYWGQGTLVTVSS
VL: DIVMTQSPDSLAVSLGERATINCKSSQSLLQSSTSKNYLAWYQQKPGQPPKLLIYWASTRESGVPDRFSGSGSGTDFTLTISSLQAEDVAVYYCKQVYNLPWTFGQGTKLEIKR
modifications: N-linked glycans on the heavy chain constant region
notes: Human IgG2/4 full-length mAb; also called CLS012 mAb; TA106 variant N31Q
Take B1: in [1], the koff came out at 0.00422 s⁻¹ and the association rate constant (kon) was determined as 366000 M⁻¹ s⁻¹. In addition, the “IC50 (read off the curve); lysis of rabbit red blood cells in 10% normal human serum” value in [2] was about 20 nM. Also, the Kd in [3] was about 11.5 nM.

B2: CLS016 (TA106-derivative S33A variant, IgG1 Fab, expressed in CHO cells) (Fab, V domains shown)
VH: QVQLVQSGAEVKKPGASVKVSCKASGYSFTDYYMTWVRQAPGQGLEWMGWINPNSGGTKYAQKFQGRVTMTRDTSISTAYMELSRLRSDDTAVYYCARGYYANSAWFAYWGQGTLVTVSS
VL: DIVMTQSPDSLAVSLGERATINCKSSQSLLNSATSKNYLAWYQQKPGQPPKLLIYWASTRESGVPDRFSGSGSGTDFTLTISSLQAEDVAVYYCKQVYNLPWTFGQGTKLEIKR
notes: IgG1 Fab of the S33A variant, made in CHO cells; also called TA106 S33A Fab; TA106-derivative S33A Fab
As for B2, the koff worked out at 0.00429 s⁻¹ in test [4]; 0.00438 s⁻¹ in test [5]; 0.00466 s⁻¹ in test [6]; 0.00322 s⁻¹ in test [8]; 0.00244 s⁻¹ in [10]; 0.00412 s⁻¹ in [11]. For the same molecule, the figures for the off-rate constant (koff) in test [13] and in [16] were 0.00392 s⁻¹ and 0.00353 s⁻¹, respectively. Besides, the on-rate (kon) in [4] came to 131000 M⁻¹ s⁻¹; in test [5] it was 338000 M⁻¹ s⁻¹; in [6], 1.38e+06 M⁻¹ s⁻¹; in test [8], 76900 M⁻¹ s⁻¹; in test [10] it was 87300 M⁻¹ s⁻¹; in test [11], 192000 M⁻¹ s⁻¹. Also, the kon in [13] stood at 177000 M⁻¹ s⁻¹; in test [16] it was 112000 M⁻¹ s⁻¹. Also, the Kd in test [5] was 13 nM; in [7], about 32.8 nM; in test [8], 41.9 nM; in test [9] it was about 3.4 nM; in test [10], 28 nM; in [11] it was 21.5 nM. The Kd was 3.37 nM in test [12]; 22.2 nM in test [13]; 20 to 30 nM in test [14]; 2.6 nM in test [15]; 31.4 nM in [16].
